Results as given in US12258584B2, “Methods and systems for converting precursor cells into intestinal tissues through directed differentiation” (Children's Hospital Medical Center, priority 2010, dated 2025).
Entries after “also recorded” stand apart in the source; their conditions may differ.

Tests used:
Assay type in all cases: cell-based, human
hESC-H9 = test: Affymetrix microarray analysis of transcript levels during DE formation; conditions: 3-day activin treated vs undifferentiated cultures, label = gene symbol of the transcript
Procedure: (§1) FIGS. 6a and 6b illustrate exemplary embodiments in accordance with the present invention, depicting characterization of DE formation from hESC and iPSC lines by immuno-fluorescence (IF) and Microarray analysis. (a) Undifferentiated hESCs stained with the pluripotency marker OCT4 (green) were treated for 3 days with ActivinA. […] (b) Transcriptional profile of DE induction. hESC-H9 and iPSC lines 3.5, 3.6 and 3.12 were analyzed before and after DE formation (activin differentiation) by Affymetrix DNA microarray analysis.
(§2) For microarray analysis, RNA was isolated from undifferentiated and 3-day activin treated hESC and iPSC cultures and used create target DNA for hybridization to Affymetrix Human 1.0 Gene ST Arrays using standard procedures (Affymetrix, Santa Clara, CA). Independent biological triplicates were performed for each cell line and condition. Affymetrix microarray Cel files were subjected to Robust Multichip Average (RMA) normalization in GeneSpring 10.1. Probe sets were first filtered for those that are overexpressed or underexpressed and then subjected to statistical analysis for differential expression by 3 fold or more between undifferentiated and differentiated cultures with p<0.05 using the Students T-test. Log 2 gene expression ratios were then subjected to hierachical clustering using the standard correlation distance metric as implemented in GeneSpring.

iPSC line 3.12 = test: as above; conditions: 3-day activin treated vs undifferentiated cultures, label = gene symbol of the transcript
Procedure: as §1, §2

iPSC3.4 = test: as above; conditions: 3-day activin treated vs undifferentiated cultures, label = gene symbol of the transcript
Procedure: as §2

H9 hESCs = test: Hindgut spheroid formation from hESC-H9 definitive endoderm after growth factor treatment; conditions: for Average # organoids per well / Total # organoids (# organoids/wells counted): hESC-H9 definitive endoderm
Procedure: (§3) Differentiation of PSCs into Definitive Endoderm (DE). Differentiation into Definitive Endoderm was carried out as previously described. Briefly, a 3 day ActivinA (R&D systems) differentiation protocol was used. Cells were treated with ActivinA (100 ng/ml) for three consecutive days in RPMI 1640 media (Invitrogen) with increasing concentrations of 0%, 0.2%, 2% HyClone defined FBS (dFBS) (Thermo Scientific).
(§4) The following tables illustrate the effects of growth factor treatment of hESCs and iPSCs. Generation of hindgut spheroids was tracked for (Table 1A) days 2-5 following growth factor treatment for H9 hESCs or (Table 1B) days 2-4 of growth factor treatment for iPSCs. Definitive endoderm was treated with either 500 ng/ml of FGF4 alone or 500 ng/ml of FGF4+Wnt3a. For both HESCs and iPSCs, hindgut spheroids formed much more robustly under FGF4+Wnt3a conditions. […] Over the course of 4 days, FGF4+Wnt3a treated H9 endoderm generated an average of 4.5 fold more spheroids than that treated with FGF4 alone.
(§5) Generation of hindgut spheroids was tracked for days 2-5 of growth factor treatment (H9 hESCs, Table 1A) or days 2-4 of growth factor treatment (iPSCs, Table 1B) for endoderm being given either 500 ng/ml FGF4 alone or 500 ng/ml FGF4+Wnt3a. In both cell lines, hindgut spheroids were much more robustly generated in FGF4+Wnt3a conditions. Over the course of 4 days, FGF4+Wnt3a treated H9 endoderm generated an average of 4.5 fold more spheroids than FGF4 treated alone.
(§6) Directed differentiation into hindgut and intestinal organoids. After differentiation into definitive endoderm, cells were incubated in 2% dFBS-DMEM/F12 with either 50 or 500 ng/ml FGF4 and/or 50 or 500 ng/ml Wnt3a (R&D Systems) for 2-4 days. After 2 days with treatment of growth factors, 3-dimensional floating spheroids were present in the culture. 3-dimensional spheroids were transferred into an in vitro system previously described to support intestinal growth and differentiation. Briefly, spheroids were embedded in Matrigel (BD Bioscience #356237) containing 500 ng/ml R-Spondin1 (R&D Systems), 100 ng/ml Noggin (R&D Systems) and 50 ng/ml EGF (R&D Systems). After the Matrigel solidified, media (Advanced DMEM/F12 (Invitrogen) supplemented with L-Glutamine, […], N2 supplement (R&D Systems), B27 supplement (Invitrogen), and Pen/Strep containing growth factors was overlaid and replaced every 4 days.

iPSC-3.5 = test: Hindgut spheroid formation from iPSC-3.5 definitive endoderm after growth factor treatment; conditions: 500 ng/ml; for Average # organoids per well / Total # organoids (# organoids/wells counted): iPSC-3.5 definitive endoderm
Procedure: as §3, §4, §5, §6

[1] = system: H9-HES cells differentiated into definitive endoderm; test: Posteriorization of definitive endoderm: foregut (ALB, PDX1) and hindgut (CDX2) marker expression by RT-qPCR and immunofluorescence; conditions: DE treated 24-48 hours; up to 500 ng/ml; RT-qPCR relative to no growth factor control
Procedure: Differentiation of DE in Permissive Media (Differentiation Protocol for FIG. 1). After differentiation into definitive endoderm, cells were incubated in DMEM/F12 plus 2% defined fetal bovine serum (dFBS) with either 0, 50, or 500 ng/ml of FGF4 and/or 0, 50, or 500 ng/ml of Wnt3a (R&D Systems) for 6, 48, or 96 hours. Cultures were then grown in permissive media consisting of DMEM plus 10% fetal bovine serum (FBS) for an additional 7 days.
FIGS. 1a through 1d illustrate exemplary embodiments of the present invention. FGF4 and Wnt3a act synergistically in a temporal and dose-dependent manner to specify stable posterior endoderm fate. ActivinA (100 ng/ml) was used to differentiate H9-HES cells into definitive endoderm (DE). DE was treated with the posteriorizing factors FGF4 (50, 500 ng), Wnt3a (50, 500 ng) or both for 6, 48 or 96 hours. Cells were then cultured in a permissive medium without growth factors for an additional seven days and analyzed for expression of foregut markers (ALB, PDX1) and the hindgut marker (CDX2) by RT-qPCR (a) and immunofluorescence (b-d). FGF4/Wnt-mediated changes in marker expression in (a) is relative to 3-day activin treated DE cultures that were grown for identical lengths of time in the absence of FGF4 or Wnt3a (control). […] Error bars denote standard deviation of triplicates. Significance is shown by; * (p<0.05), ^ (p<0.001), # (p<0.0001).
FIGS. 7a and 7b illustrate exemplary embodiments in accordance with the present invention, depicting time and concentration dependent induction of CDX2 by FGF4 and Wnt3a. (a) FGF4 and Wnt3a up-regulate CDX2 in a concentration dependant manner. 3-day ActivinA treated hESCs were treated for 48 hours with Wnt3a at 50 ng/ml or 500 ng/ml or FGF4 at 50 ng/ml or 500 ng/ml, or increasing concentrations of FGF4+Wnt3a. Cells were analyzed after 48 hours of treatment. […] CDX2 expression was normalized to the internal control beta-tubulin, and is shown relative to a 48 hour control cultured in the absence of growth factors. (b) FGF4 and Wnt3a up-regulate CDX2 in a time dependant manner. 48 hours of exposure to FGF4+Wnt3a was required for the most robust induction of CDX2. All time points shown are set relative to a 0 hour no growth factor control. 500 ng/ml of FGF4, Wnt3a or FGF4+Wnt3a was used for all time points. Note that 24 hour and 48 controls, in the absence of growth factors, show a significant and spontaneous up-regulation of CDX2. Error bars denote standard deviation of triplicates. Significance is shown by; * (p<0.05)
RNA was isolated using the Nucleospin II RNA isolation kit (Clonetech). […] Finally, qPCR was carried out using Quantitect SybrGreen MasterMix (Qiagen) on a Chromo4 Real-Time PCR (BioRad). […]

[2] = 500 ng/ml, 2 days (48 h) of GF treatment
[3] = 500 ng/ml, 3 days (72 h) of GF treatment
[4] = 500 ng/ml, 4 days (96 h) of GF treatment
[5] = 500 ng/ml, 5 days (120 h) of GF treatment

## DKK1
hESC-H9
  DIFF'D-H9] VS [IFF'D-H9] (folds), variation of transcript level during DE formation: 9.66 folds
iPSC line 3.12
  [DIFF'D-IPSC3.12] VS [IFF'D-IPSC3.12] (folds), variation of transcript level during DE formation: 6.27 folds
iPSC3.4
  [Diff'd-iPSC3.4] vs [Undiff d-iPSC3.4] (folds), variation of transcript level during DE formation: 7.27 folds

## NODAL
hESC-H9
  DIFF'D-H9] VS [IFF'D-H9] (folds), variation of transcript level during DE formation: 5.66 folds
iPSC line 3.12
  [DIFF'D-IPSC3.12] VS [IFF'D-IPSC3.12] (folds), variation of transcript level during DE formation: 5.77 folds
iPSC3.4
  [Diff'd-iPSC3.4] vs [Undiff d-iPSC3.4] (folds), variation of transcript level during DE formation: 5.00 folds

## NPPB
hESC-H9
  DIFF'D-H9] VS [IFF'D-H9] (folds), variation of transcript level during DE formation: 2.88 folds
iPSC line 3.12
  [DIFF'D-IPSC3.12] VS [IFF'D-IPSC3.12] (folds), variation of transcript level during DE formation: 3.62 folds
iPSC3.4
  [Diff'd-iPSC3.4] vs [Undiff d-iPSC3.4] (folds), variation of transcript level during DE formation: 3.57 folds

B1: Wnt3a: soluble Wnt ligand (R&D Systems), growth factor known to posteriorize endoderm (protein, UniProt P56704 19-352, looked up)
Protein Wnt-3a: SYPIWWSLAVGPQYSSLGSQPILCASIPGLVPKQLRFCRNYVEIMPSVAEGIKIGIQECQHQFRGRRWNCTTVHDSLAIFGPVLDKATRESAFVHAIASAGVAFAVTRSCAEGTAAICGCSSRHQGSPGKGWKWGGCSEDIEFGGMVSREFADARENRPDARSAMNRHNNEAGRQAIASHMHLKCKCHGLSGSCEVKTCWWSQPDFRAIGDFLKDKYDSASEMVVEKHRESRGWVETLRPRYTYFKVPTERDLVYYEASPNFCEPNPETGSFGTRDRTCNVSSHGIDGCDLLCCGRGHNARAERRREKCRCVFHWCCYVSCQECTRVYDVHTCK
H9 hESCs; hESC definitive endoderm, 500 ng/ml
  in vitro gut-tube morphogenesis / spheroid formation: never observed; also recorded: never formed spheroids; also recorded: not observed
iPSC-3.5; iPSC definitive endoderm
  spheroid formation: never formed spheroids
[1]
  induction of hindgut marker CDX2 expression / posterior fate: neither factor alone was sufficient to robustly promote a posterior fate; also recorded: modest changes in CDX2 expression

B2: FGF4: fibroblast growth factor 4, soluble growth factor (R&D Systems) known to posteriorize endoderm (protein, UniProt P08620 31-206, looked up)
Fibroblast growth factor 4: APTAPNGTLEAELERRWESLVALSLARLPVAAQPKEAAVQSGAGDYLLGIKRLRRLYCNVGIGFHLQALPDGRIGGAHADTRDSLLELSPVERGVVSIFGVASRFFVAMSSKGKLYGSPFFTDECTFKEILLPNNYNAYESYKYPGMFIALSKNGKTKKGNRVSPTMKVTHFLPRL
H9 hESCs; CDX2 immunostaining of treated DE cultures
  CDX2 staining of spheroids / 3D structures: weakly CDX2+
H9 hESCs; Table 1A, H9 hESC definitive endoderm
  fold fewer spheroids generated (versus FGF4+Wnt3a treated cultures): 4-10 fold
H9 hESCs; [2]
  Average # organoids per well: 0
  Total # organoids (# organoids/wells counted): 0/5
H9 hESCs; [3]
  Average # organoids per well: 0
  Total # organoids (# organoids/wells counted): 0/5
H9 hESCs; [4]
  Average # organoids per well: 8.8
  Total # organoids (# organoids/wells counted): 44/5
H9 hESCs; [5]
  Average # organoids per well: 4.75
  Total # organoids (# organoids/wells counted): 19/4
iPSC-3.5; 2 days (48 h) of GF treatment
  Average # organoids per well: 0
  Total # organoids (# organoids/wells counted): 0/4
iPSC-3.5; 3 days (72 h) of GF treatment
  Average # organoids per well: 2.5
  Total # organoids (# organoids/wells counted): 10/4
iPSC-3.5; 4 days (96 h) of GF treatment
  Average # organoids per well: 3.5
  Total # organoids (# organoids/wells counted): 14/4
[1]
  induction of hindgut marker CDX2 expression / posterior fate: neither factor alone was sufficient to robustly promote a posterior fate; also recorded: modest changes in CDX2 expression
